Measured values from US20220227882A1 (TRUSTEES OF TUFTS COLLEGE, published 2022).
Substitutions are numbered along the chain they refer to.

Experiments:
[1] = target: T1, E444A (Homo sapiens, UniProt P78325); assay: high-throughput flow cytometry, HEK293 cells with mutant ADAM8, high stringency; range in parentheses; closed box
T1 construct: expressed on HEK293 cells; also called human ADAM8 point mutant E444A
T1 sequence (ADAM8, looked up): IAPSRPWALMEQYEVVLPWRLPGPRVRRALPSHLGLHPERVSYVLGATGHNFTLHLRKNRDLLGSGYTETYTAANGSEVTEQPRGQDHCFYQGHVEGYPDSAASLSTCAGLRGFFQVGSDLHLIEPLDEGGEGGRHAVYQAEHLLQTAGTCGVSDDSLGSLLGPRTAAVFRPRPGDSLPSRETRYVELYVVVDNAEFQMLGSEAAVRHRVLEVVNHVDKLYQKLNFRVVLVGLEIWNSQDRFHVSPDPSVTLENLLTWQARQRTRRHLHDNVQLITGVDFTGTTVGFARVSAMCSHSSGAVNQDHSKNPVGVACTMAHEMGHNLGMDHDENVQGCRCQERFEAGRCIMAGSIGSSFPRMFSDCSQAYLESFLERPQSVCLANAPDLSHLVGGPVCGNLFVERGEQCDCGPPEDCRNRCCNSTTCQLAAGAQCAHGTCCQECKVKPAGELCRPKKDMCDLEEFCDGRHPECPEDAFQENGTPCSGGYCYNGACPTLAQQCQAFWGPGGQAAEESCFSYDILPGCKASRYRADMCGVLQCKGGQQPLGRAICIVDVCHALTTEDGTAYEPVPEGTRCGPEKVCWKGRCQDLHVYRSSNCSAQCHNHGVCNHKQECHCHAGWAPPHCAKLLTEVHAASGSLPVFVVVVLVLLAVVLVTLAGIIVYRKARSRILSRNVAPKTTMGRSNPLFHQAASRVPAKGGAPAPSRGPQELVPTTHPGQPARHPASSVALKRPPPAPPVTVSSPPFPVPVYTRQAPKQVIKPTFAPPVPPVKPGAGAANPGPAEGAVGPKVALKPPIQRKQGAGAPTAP
Procedure: (§1) A variety of experimental parameters were optimized for high-throughput flow cytometry including blocking buffer, and primary and secondary antibody concentrations, to identify the optimal conditions for screening. Through these studies ADP2 and ADP13 were determined to be high affinity binding antibodies.
(§2) Thus, for these studies antigen-binding fragments (Fabs) of ADP2 and ADP13, which bind with lower affinity than the full antibody, were generated. In addition, higher binding stringency conditions were tested, such as increased pH, salinity, and temperature, and/or increased washing, to weaken binding sufficiently to allow identification of critical binding residues in flow cytometry. The final experimental flow cytometry conditions were: primary antibody incubation with ADP2 Fab (0.50 μg/ml), ADP13 Fab (5.00 μg/ml) and Control Ab (0.16 μg/ml) for 60 minutes in flow cytometry buffer containing 10% goat serum in PBS (Ca²⁺ and Mg²⁺ free). […] Samples were washed three times after primary antibody incubation and twice after secondary antibody incubation with PBS (Ca²⁺ and Mg′ free). Next, HEK293 cells expressing WT or mutated ADAM8 proteins or EV DNA were incubated with ADP2 or ADP13 Fabs or Control Ab at their optimal concentrations. Fab binding was detected using Alexa Fluor 488-conjugated secondary antibodies and mean cellular fluorescence determined using the Intellicyt iQue flow cytometry platform. […] This counter-screen strategy facilitates the exclusion of mutants that are locally misfolded or that have an expression defect. Binding of each test Fab to each mutant clone in the alanine scanning library was determined, in duplicate, by high-throughput flow cytometry.

[2] = target: T2, R431A (Homo sapiens, UniProt P78325); assay: high-throughput flow cytometry, HEK293 cells with mutant ADAM8, high stringency; range in parentheses; dotted box
T2 construct: expressed on HEK293 cells; also called human ADAM8 point mutant R431A
T2 sequence (ADAM8, looked up): T1 sequence (ADAM8, looked up) with R415A, A428E
Procedure: as §1, §2

B1: ADP2 Fab (Fab, V domains shown)
VH: EVKLVESGGGLVQPGGSLSLSCAASGFSFPDYYMSWVRQPPGKALEWLGFIRDSANGYTTEYIASVKGRFTFSRDNSQSILYLQMNALRAEDSATYYCARYSRYYGMDYWGQGTSVTVSS
VL: SIVMTQTPKILLVSAGDRVTITCKASQTVNYDVAWYQQKPGQSPKPVIYFASNRYTGVPDRFTGSGFGTDFTFTISTVQAEDLAVYFCQQDYSAPWTFGGGTKLEIK
[1]
  Binding Reactivity (% WT): 17.6 % WT
[2]
  Binding Reactivity (% WT): 26.2 % WT
